Measurements as given in patent US20260077011A1, “INTEGRIN INHIBITORS AS THERAPY FOR OBESITY DISORDERS” (priority 2022, published 2026).
Where no end group is shown, it is not given here.

Tests used:
RAW264.7 cells = type: cell-based
Protocol: (§1) Cells were also analyzed for the FITC-labeled peptide, which was added to the suspension of RAW264.7 cells in doses of 100 nM, 1 μM, 3 μM, 10 μM, 30 μM, 100 μM, and 300 μM, for one hour. For the time curve binding assay, 3 μM of the FITC-peptide were incubated with cells for 1, 5, 15, 60, 180, and 360 minutes before and analyzed on flow cytometry. For the propidium iodide (PI) assay, cells were incubated with different doses of the peptide for eight and 24 hours, with 10% DMSO serving as a positive control; the cells were then suspended, stained with PI, and analyzed with flow cytometry.
To investigate the effects of the SVEP1-based peptide on the metabolic and proliferative capacity of macrophage cells, RAW264.7 cells were subjected to varying concentrations of the peptide (1, 10, 30, 120 μM). The cells' metabolic activity was assessed using XTT after 3, 8, and 24 hours of peptide treatment. […] To further evaluate cell viability, propidium iodide (PI) staining was conducted after 8 and 24 hours of peptide treatment. […] These findings provide evidence of the peptide's safety profile and its potential suitability for use in macrophage cells.

integrin α9β1 [1] = molecular target: T1, integrin α9β1 (Mus musculus, UniProt B8JK39+P09055); assay: FITC-peptide dose-dependent uptake and time curve binding, flow cytometry; details: RAW264.7 cells
T1 construct: RAW264.7 cells, a murine macrophage-like cell line, was chosen due to their similarity to macrophages, adhesive and migratory capabilities, and their expression of integrin α9β1; host or cells: RAW264.7
T1 sequence (B8JK39 29-1036): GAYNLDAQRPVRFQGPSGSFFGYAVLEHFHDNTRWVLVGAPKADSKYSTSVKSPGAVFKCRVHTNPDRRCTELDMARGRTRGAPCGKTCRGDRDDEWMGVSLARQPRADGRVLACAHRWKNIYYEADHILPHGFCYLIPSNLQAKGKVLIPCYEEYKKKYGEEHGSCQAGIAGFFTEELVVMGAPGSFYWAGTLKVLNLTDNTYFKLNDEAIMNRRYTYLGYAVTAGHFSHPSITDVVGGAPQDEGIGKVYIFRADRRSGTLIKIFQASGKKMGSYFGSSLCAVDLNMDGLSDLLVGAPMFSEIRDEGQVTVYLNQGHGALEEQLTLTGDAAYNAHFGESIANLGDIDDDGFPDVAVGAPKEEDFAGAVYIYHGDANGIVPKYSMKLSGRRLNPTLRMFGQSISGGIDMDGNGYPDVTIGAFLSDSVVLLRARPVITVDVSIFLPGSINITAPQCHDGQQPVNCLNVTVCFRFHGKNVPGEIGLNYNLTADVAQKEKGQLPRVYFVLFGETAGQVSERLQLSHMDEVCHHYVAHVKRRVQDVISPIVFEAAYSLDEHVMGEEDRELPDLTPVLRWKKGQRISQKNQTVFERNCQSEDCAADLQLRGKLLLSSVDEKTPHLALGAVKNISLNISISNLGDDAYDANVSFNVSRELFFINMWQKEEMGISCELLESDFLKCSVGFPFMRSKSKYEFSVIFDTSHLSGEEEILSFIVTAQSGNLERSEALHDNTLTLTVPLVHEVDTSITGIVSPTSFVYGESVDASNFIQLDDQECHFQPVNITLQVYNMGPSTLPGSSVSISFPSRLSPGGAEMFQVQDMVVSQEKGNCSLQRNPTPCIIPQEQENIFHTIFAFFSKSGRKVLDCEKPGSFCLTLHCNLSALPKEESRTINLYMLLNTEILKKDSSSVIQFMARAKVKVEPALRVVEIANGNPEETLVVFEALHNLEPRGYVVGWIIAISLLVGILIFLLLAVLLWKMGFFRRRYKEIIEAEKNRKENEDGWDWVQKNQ
T1 sequence (P09055 21-798): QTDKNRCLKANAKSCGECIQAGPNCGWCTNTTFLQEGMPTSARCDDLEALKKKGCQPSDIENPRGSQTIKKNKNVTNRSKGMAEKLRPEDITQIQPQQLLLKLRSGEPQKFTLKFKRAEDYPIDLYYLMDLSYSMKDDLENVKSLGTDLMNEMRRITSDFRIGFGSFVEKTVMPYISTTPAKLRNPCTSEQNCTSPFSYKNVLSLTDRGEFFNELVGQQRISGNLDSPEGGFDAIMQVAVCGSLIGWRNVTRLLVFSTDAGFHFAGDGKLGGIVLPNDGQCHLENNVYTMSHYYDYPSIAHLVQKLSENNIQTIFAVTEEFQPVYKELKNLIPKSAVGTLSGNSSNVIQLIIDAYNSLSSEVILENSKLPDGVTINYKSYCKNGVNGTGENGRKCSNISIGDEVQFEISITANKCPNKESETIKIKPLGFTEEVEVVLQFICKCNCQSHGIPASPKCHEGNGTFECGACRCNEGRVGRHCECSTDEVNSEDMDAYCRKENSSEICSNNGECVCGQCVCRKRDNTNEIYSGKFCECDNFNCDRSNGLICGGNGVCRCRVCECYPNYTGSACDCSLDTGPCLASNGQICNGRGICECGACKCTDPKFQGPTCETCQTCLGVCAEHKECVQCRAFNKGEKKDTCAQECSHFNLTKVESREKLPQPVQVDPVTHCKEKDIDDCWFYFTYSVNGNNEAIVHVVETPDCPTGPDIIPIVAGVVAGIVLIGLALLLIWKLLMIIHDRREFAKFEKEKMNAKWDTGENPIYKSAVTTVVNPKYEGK
Protocol: (§2) RAW264.7 cells were incubated in PBS with 2% serum, 0.1% NaN3, and 1 mM EDTA for 20 minutes, collected, and centrifuged at 1800 rpm for 5 min. Next, the cells were suspended in a staining buffer; PBS with 2% serum and 0.1% NaN3 for 15 min on ice. The cells were stained for ITGA9-PE (R&D technologies).
as §1
All labeled cells were analyzed by Cytoflex5l and Kaluza software (Beckman Coulter instrument).
In a previous study, a 9 amino-acid long sequence, “EDDMMEVPY”, was identified as the binding site of SVEP1 to integrin α9β1. To examine the effect of the peptide in vitro, RAW264.7 cells, a murine macrophage-like cell line, was chosen due to their similarity to macrophages, adhesive and migratory capabilities, and their expression of integrin α9β1, as shown in the confocal staining of ITGA9 and F4/80, with a seeming membranal expression of both (FIG. 5G). […] To characterize the binding properties of the peptide, a fluorescein isothiocyanate (FITC) labeled peptide was generated. The inventors first performed a dose-dependent uptake test, where the RAW264.7 cells were incubated with increasing peptide concentrations for half an hour and then measured in a flow cytometry assay. […] Next, the cells were pretreated with the peptide for different time durations and were also measured by flow cytometry analysis. The peptide bonded relatively quickly, with 50% of max mean fluorescence intensity presented after 15 minutes and stabilization after three hours (FIG. 5C). […]

ITGA9 = molecular target: T2, ITGA9 (Mus musculus, UniProt B8JK39+P09055); assay: FITC-peptide binding specificity in ITGA9 knockdown (siITGA9) cells; details: RAW264.7 cells, FITC-peptide 30 μM, 60 minutes
T2 construct: RAW264.7 cells, a murine macrophage-like cell line, was chosen due to their similarity to macrophages, adhesive and migratory capabilities, and their expression of integrin α9β1; host or cells: RAW264.7
T2 sequence (B8JK39 29-1036): as the sequence (B8JK39 29-1036) above
T2 sequence (P09055 21-798): as the sequence (P09055 21-798) above
Protocol: For siRNA assays, RAW264.7 cells were transfected by using Avalanche®-Everyday Transfection Reagent (Ezbio systems) with siSCR (Santa Cruz) and siITGA9 (Santa Cruz) in DMEM. The transfection solution was added to the cells for 48 hours, and the cells were examined after an additional 48 hours (96 hours in total).
as §2
In a previous study, a 9 amino-acid long sequence, “EDDMMEVPY”, was identified as the binding site of SVEP1 to integrin α9β1. […] The inventors first performed a dose-dependent uptake test, where the RAW264.7 cells were incubated with increasing peptide concentrations for half an hour and then measured in a flow cytometry assay. […] Next, the cells were pretreated with the peptide for different time durations and were also measured by flow cytometry analysis. The peptide bonded relatively quickly, with 50% of max mean fluorescence intensity presented after 15 minutes and stabilization after three hours (FIG. 5C). […]

integrin α9β1 [2] = molecular target: T1, integrin α9β1; assay: Fluorescent live microscopy of FITC-peptide binding with/without unlabeled peptide; details: RAW264.7 cells, FITC-peptide 30 μM
Protocol: FIGS. 5A-5M include fluorescent micrographs and graphs showing characterization of the peptide's binding properties. (5A) Representative immunofluorescent confocal images of Raw264.7 cells stained for F4/80 and ITGA9, the dotted line square represents the magnified pictures, scale bar 116 μm. (5B) Flow cytometry quantification of LPS-activated RAW264.7 cells, ITGA9 MFI levels in LPS-activated RAW264.7 cells (4 hours), significance was calculated by unpaired t-test analysis. (5C) Calculated dose-response curve of Peptide-FITC positive RAW264.7 cells, measured in flow cytometry and time curve of the averaged mean fluorescent intensity (MFI) of RAW264.7 cells incubated with the labeled peptide, the MFI was calculated by flow cytometry. (5D) Representative images of RAW264.7 cells incubated with FITC-peptide (30 μM) for 15 and 60 minutes with and without an unlabeled peptide, scale bar=100 μm, and quantification of fluorescence intensity of RAW264.7 cells incubated with FITC-peptide (30 μM) for 15 and 60 minutes, w/o the unlabeled peptide, significance was calculated by using an ordinary one-way ANOVA. […] (5F) ITGA9 fluorescence intensity histogram in Scrambled and ITGA9 KD (Red) Raw264.7 cells incubated with FITC-peptide (30 μM) for 60 minutes, measured by flow cytometry. […]

Row | Substance | fraction of PI-positive cells compared to the untreated group (RAW264.7 cells) | time to 50% of max mean fluorescence intensity (integrin α9β1 [1]; 3 μM FITC-peptide) | time to stabilization of mean fluorescence intensity (integrin α9β1 [1]; 3 μM FITC-peptide) | percentage of Peptide-FITC positive cells (integrin α9β1 [1]; increasing peptide concentrations, half an hour) | FITC-peptide binding (fluorescence intensity) in siITGA9 versus scrambled cells (ITGA9) | percentage of ITGA9+FITC-peptide+ cells in KD cells (ITGA9; flow cytometry) | increase of fluorescence intensity after 60 minutes compared to 15 minutes (integrin α9β1 [2]) | change of fluorescence intensity when co-incubated with the unlabeled peptide (integrin α9β1 [2]; competitive binding)
1 | EDDMMEVPY [peptide, EDDMMEVPY] | remained unchanged | – | – | – | – | – | – | –
2 | FITC-peptide: fluorescein isothiocyanate (FITC) labeled peptide of 9 amino acids (EDDMMEVPY) (also: FITC labeled, site not given here) | – | 15 min | three | higher percentage of positive cells in a dose-related manner | lower intensity levels | significantly lower | 35% | decreased by a similar percentage
